Experimental data: PMC3326387

Target: ecto-FLRT3 (immobilized for SPR) (UniProt Q8BGT1)
Experiment: SPR

UniProt Q8BGT1, sequence (Q8BGT1 29-528): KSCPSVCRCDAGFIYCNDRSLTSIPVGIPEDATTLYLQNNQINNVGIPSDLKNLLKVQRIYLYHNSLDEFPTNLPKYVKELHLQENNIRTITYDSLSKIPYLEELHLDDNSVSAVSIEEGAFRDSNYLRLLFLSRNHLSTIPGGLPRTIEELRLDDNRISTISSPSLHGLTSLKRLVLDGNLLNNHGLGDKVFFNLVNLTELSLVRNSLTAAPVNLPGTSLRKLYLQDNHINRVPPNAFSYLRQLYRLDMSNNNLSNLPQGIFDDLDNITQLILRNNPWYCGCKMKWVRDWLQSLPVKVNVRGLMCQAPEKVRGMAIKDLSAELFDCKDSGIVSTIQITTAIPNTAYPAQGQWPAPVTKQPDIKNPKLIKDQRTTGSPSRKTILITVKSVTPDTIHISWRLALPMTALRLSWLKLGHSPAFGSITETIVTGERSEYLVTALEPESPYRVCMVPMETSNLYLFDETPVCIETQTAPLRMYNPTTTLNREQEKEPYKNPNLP

With “ecto-LPHN3-Fc (from UniProt Q80TS3 20-1537) (Fc fusion)” the Kd was 14.7 nM.
